Here are results for twelve molecules from paper PMC5707354 (Nature Communications, 2017).

The target in data set [1] is N-terminal tail domain of myosin VI (NMVITAIL 814-1060) (human). As to the kind of experiment: fluorescence polarisation; fluorescence anisotropy; unlabelled protein titrated against the FITC-labelled partner (NMVITAIL against FITC-CBD and CBD against FITC-NMVITAIL); 25 C, 50 mM Tris-HCl pH 7.5, 150 mM NaCl, 1 mM DTT. For orientation: Fluorescence polarisation rises when a labelled molecule tumbles more slowly, as on binding a larger partner.

Data set [2] has the same target. As to the kind of experiment: FRET or BRET; AF555-labelled pool titrated against the FITC-labelled pool of the same construct, no additive; monomer to dimer; 25 C, 50 mM Tris-HCl pH 7.5, 150 mM NaCl, 1 mM DTT.
Data set [3] has as its target Cargo binding domain of myosin VI (CBD 1060-1253) (human). Description: FRET or BRET; Alexa555-NMVITAIL titrated to FITC-CBD (1 uM); 25 C, 50 mM Tris-HCl pH 7.5, 150 mM NaCl, 1 mM DTT; quadratic binding fit. On the technique in general: BRET reads energy transfer from a luciferase to a nearby fluorophore.
Data set [4] shares this target. Description: fluorescence polarisation; fluorescence anisotropy; unlabelled protein titrated against the FITC-labelled partner (NMVITAIL against FITC-CBD and CBD against FITC-NMVITAIL); 25 C, 50 mM Tris-HCl pH 7.5, 150 mM NaCl, 1 mM DTT.
For data set [5], the target named is Myosin VI tail (MVITAIL 814-1253) (human). Description: FRET or BRET; AF555-labelled pool titrated against the FITC-labelled pool of the same construct, no additive; monomer to dimer; 25 C, 50 mM Tris-HCl pH 7.5, 150 mM NaCl, 1 mM DTT.
Data set [6] has the same target. Description: FRET or BRET; AF555-MVITAIL titrated against FITC-MVITAIL in the presence of 20 uM NDP52 and DNA; monomer to dimer; 25 C, 50 mM Tris-HCl pH 7.5, 150 mM NaCl, 1 mM DTT.
The target is the same in data set [7]. Description: FRET or BRET; AF555-MVITAIL and FITC-MVITAIL in the presence of 20 uM DNA; monomer to dimer; 25 C, 50 mM Tris-HCl pH 7.5, 150 mM NaCl, 1 mM DTT.
For data set [8] the target is unchanged. As to the kind of experiment: FRET or BRET; AF555-labelled pool titrated against the FITC-labelled pool of the same construct in the presence of 20 uM NDP52; monomer to dimer; 25 C, 50 mM Tris-HCl pH 7.5, 150 mM NaCl, 1 mM DTT.
Data set [9] concerns the target Full-length myosin VI (non-insert isoform), recombinant, co-expressed with calmodulin (human | Xenopus) (UniProt Q9UM54).
Data set [10] concerns the target T1, NDP52 (Human, UniProt Q13137 1-446).
T1 sequence: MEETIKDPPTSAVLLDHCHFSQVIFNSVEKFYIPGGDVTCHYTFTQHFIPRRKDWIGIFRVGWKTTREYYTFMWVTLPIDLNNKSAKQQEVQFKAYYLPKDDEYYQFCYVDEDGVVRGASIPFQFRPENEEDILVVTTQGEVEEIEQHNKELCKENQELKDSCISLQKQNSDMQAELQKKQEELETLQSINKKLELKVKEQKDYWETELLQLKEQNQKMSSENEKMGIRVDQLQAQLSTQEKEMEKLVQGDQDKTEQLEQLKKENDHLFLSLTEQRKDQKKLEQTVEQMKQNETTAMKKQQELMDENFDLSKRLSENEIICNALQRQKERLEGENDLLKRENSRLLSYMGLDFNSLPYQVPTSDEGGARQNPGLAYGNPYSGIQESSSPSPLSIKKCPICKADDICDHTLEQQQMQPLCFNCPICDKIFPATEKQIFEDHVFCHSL

For data set [11], the target named is T1, NDP52. As to the kind of experiment: FRET or BRET; FITC-MVI_TAIL constructs and Alexa555-NDP52 (1 uM); 25 C, 50 mM Tris-HCl pH 7.5, 150 mM NaCl, 1 mM DTT.
For data set [12], the target named is Myosin VI tail (MVITAIL 814-1253) (human). As to the kind of experiment: FRET or BRET; FITC-MVITAIL constructs and Alexa555-NDP52 (1 uM NDP52 by the legend of Fig. 4d); 25 C, 50 mM Tris-HCl pH 7.5, 150 mM NaCl, 1 mM DTT; quadratic binding fit.
The target in data set [13] is Myosin VI tail RRL/AAA mutant (MVITAIL RRL/AAA) (human). The description is as above.
For data set [14], the target named is Myosin VI tail RRL/ARL mutant (MVITAIL RRL/ARL, R1116A) (human). The data set is described as above.
The target in data set [15] is Myosin VI tail RRL/RRA mutant (MVITAIL RRL/RRA, L1118A) (human). Described as above.
Data set [16] addresses Myosin VI tail, large insert (MVITAIL (large insert) 814-1284) (human). The data set is described as above.
In data set [17] the target is CBD (Human, UniProt Q9UM54-5 1060-1253). As to the kind of experiment: fluorescence anisotropy; FAM-DNA 50 nM; assay buffer, salt, pH and temperature not given in the material (duplex annealing in water or 50 mM Tris-HCl pH 7.5, 150 mM NaCl, 3 mM MgCl2). The settings on record: protein: recombinant, tags: His-tag (pET28).
For data set [18], the target named is T2, NDP52 (recombinant) (UniProt Q13137 1-446, Alexa Fluor 555 label in the FRET titration with MVI_TAIL; unlabelled where added as a third component).
T2 construct: NDP52 (SKICH domain, coiled-coil, two zinc fingers); also called Alexa555-NDP52; source: E. coli BL21 DE3, purified (HisTrap, Superdex 200)
T2 sequence (looked up): T1 sequence
As to the kind of experiment: FRET or BRET; FITC-MVI_TAIL constructs and Alexa555-NDP52 (1 uM); 25 C, 50 mM Tris-HCl pH 7.5, 150 mM NaCl, 1 mM DTT. The settings on record: both partners purified.

Data set [19] has as its target MVITAIL (Human, UniProt Q9UM54-5 814-1253). As to the kind of experiment: fluorescence anisotropy; FAM-DNA 50 nM; assay buffer, salt, pH and temperature not given in the material (duplex annealing in water or 50 mM Tris-HCl pH 7.5, 150 mM NaCl, 3 mM MgCl2). Conditions: protein: recombinant; tags: His-tag (pET151), TEV-cleaved; label: 3' FAM on strand A; blunt.
Data set [20] concerns the target MVITAIL(W1221A) (Human, UniProt Q9UM54-5 814-1253, W1221A). Described as above. Conditions: protein: recombinant; tags: His-tag (pET151), TEV-cleaved; label: 3' FAM on strand A; blunt.
For data set [21], the target named is T1, NDP52. As to the kind of experiment: fluorescence intensity titration; FAM-DNA 50 nM; assay buffer, salt, pH and temperature not given in the material (duplex annealing in water or 50 mM Tris-HCl pH 7.5, 150 mM NaCl, 3 mM MgCl2). The settings on record: protein: recombinant; tags: His-tag (pET151), TEV-cleaved; chain copies: 2; label: 3' FAM on strand A; blunt.

Setting [22] is: label: 3' FAM on strand A, blunt.

MVITAIL(W1221A), sequence (Q9UM54 other isoform, or with tags, fused parts or gaps W1221A | W1221A W1221A): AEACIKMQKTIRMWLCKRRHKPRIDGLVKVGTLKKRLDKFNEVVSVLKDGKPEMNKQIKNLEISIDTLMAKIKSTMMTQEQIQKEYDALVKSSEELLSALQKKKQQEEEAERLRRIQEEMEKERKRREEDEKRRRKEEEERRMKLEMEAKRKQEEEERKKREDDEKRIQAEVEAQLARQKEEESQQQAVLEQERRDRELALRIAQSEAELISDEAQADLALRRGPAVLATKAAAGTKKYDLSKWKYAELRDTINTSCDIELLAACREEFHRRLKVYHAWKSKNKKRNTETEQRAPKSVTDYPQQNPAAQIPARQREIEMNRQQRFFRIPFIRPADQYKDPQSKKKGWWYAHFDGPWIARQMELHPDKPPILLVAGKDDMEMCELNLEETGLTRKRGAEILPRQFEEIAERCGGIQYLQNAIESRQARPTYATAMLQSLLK
MVITAIL, sequence (Q9UM54 other isoform, or with tags, fused parts or gaps): as the sequence (Q9UM54 other isoform, or with tags, fused parts or gaps W1221A | W1221A W1221A) above, with A408W counted along it

“Cargo binding domain of myosin VI (CBD 1060-1253) (domain or fragment)” displayed a dissociation constant (Kd) in data set [1] of 4.2 µM.

“N-terminal tail domain of myosin VI (NMVITAIL 814-1060) (domain or fragment)”: the Kd in data set [2] worked out at 3.1 µM; in [3], 4.5 µM; in data set [4], 4 µM.

Turning to “Myosin VI tail (MVITAIL 814-1253) (domain or fragment)”, the Kd was 27 µM in data set [5], 2.5 µM in data set [6], 29 µM in [7] and 2.3 µM in data set [8].

Turning to “Full-length myosin VI (non-insert isoform), recombinant, co-expressed with calmodulin (from UniProt Q9UM54-5 1-1253; P0DP33 1-149) (complex)”, in data set [9], the steady-state actin-activated ATPase rate constant of MVI, reduction on addition of NDP52 was determined as 50%. Besides, the velocity of actin filaments in the sliding filament assay with MVI pre-incubated with / immobilised through NDP52 (0.1, 0.5 or 1 μM); two populations, 50–60 and 90 nm s^−1 in [10] was found to be 90 nm/s.

The molecule “MVI_(TAIL) with the leucine of the RRL motif removed (RRA) (domain or fragment)” gave a fold decrease in affinity against wild-type MVI TAIL in data set [11] of 10 fold.

B1: NDP52 (1-end) (natural protein)
chain: T1 sequence
modifications: Alexa Fluor 555 label (site not stated)
Consider B1, for which the Kd in data set [12] was determined as 3.2 µM; in data set [13], 63 µM; in data set [14] it was 4.6 µM; in data set [15], 21 µM; in data set [16], 9.8 µM.

Regarding TTTTTTTTTTTTTTTTTTTT (ssDNA) [dT20], the Kd in data set [17] came to 0.12 ± 0.025 µM.

B2: MVI_(TAIL) (large insert) (domain or fragment)
chain: AEACIKMQKTIRMWLCKRRHKPRIDGLVKVGTLKKRLDKFNEVVSVLKDGKPEMNKQIKNLEISIDTLMAKIKSTMMTQEQIQKEYDALVKSSEELLSALQKKKQQEEEAERLRRIQEEMEKERKRREEDEKRRRKEEEERRMKLEMEAKRKQEEEERKKREDDEKRIQAEVEAQLARQKEEESQQQAVLEQERRDRELALRIAQSEAELISDEAQADLALRSLDSYPVTSKNDGTRPKMTPEQMAKEMSEFLSRGPAVLATKAAAGTKKYDLSKWKYAELRDTINTSCDIELLAACREEFHRRLKVYHAWKSKNKKRNTETEQRAPKSVTDYAQQNPAAQIPARQREIEMNRQQRFFRIPFIRPADQYKDPQSKKKGWWYAHFDGPWIARQMELHPDKPPILLVAGKDDMEMCELNLEETGLTRKRGAEILPRQFEEIWERCGGIQYLQNAIESRQARPTYATAMLQSLLK
modifications: FITC label
Regarding B2, the “fold reduction of binding against wild-type MVI_TAIL” value in data set [18] was determined as 4 fold.

B3: ds40 (dsDNA)
DNA 1: TTAGTTGTTCGTAGTGCTCGTCTGGCTCTGGATTACCCGC
DNA 2: GCGGGTAATCCAGAGCCAGACGAGCACTACGAACAACTAA
As to B3, the equilibrium dissociation constant (Kd) was determined as 2.5 µM in [19], 0.1 µM in [17] (setting [22]), 0.3 ± 0.03 µM in [20] and 0.08 ± 0.025 µM in [21].

On to TTAGTTGTTCGTAGTGCTCGTCTGGCTCTGGATTACCCGC (ssDNA) [ss40], for which, in [17] (label: 3' FAM), the dissociation constant (Kd) was 0.12 ± 0.035 µM.

B4: ds15 (15 bp) (dsDNA)
DNA 1: TTAGTTGTTCTCTGG
DNA 2: CCAGAGAACAACTAA
B4: in data set [17] (setting [22]), the Kd was found to be 0.5 ± 0.045 µM.

For TCTGGCTCTGGATTACCCGC (ssDNA) [ss20], the equilibrium dissociation constant (Kd) in [17] (label: 3' FAM) stood at 0.11 ± 0.035 µM.

As usually defined, the Kd is the free concentration of one partner at which half of the binding sites on the other are occupied at equilibrium, for simple one-to-one binding.
